Laboratory results reported in US20220332804A1 (CSL INNOVATION, published 2022).
Numbering of substitutions follows the chain as printed.

Columns and labels:
Test in all cases: SPR, KD relative to WT C2;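 note: biacore SPR at 37 °C, anti-C2 mAbs captured via immobilised goat anti-human IgG, C2 alanine or serine surface mutants as analytes, 1:1 model fitted, double-referenced sensograms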
human C2 L439A = molecular target: T1, human C2 L439A (human, UniProt P06681 21-752)
T1 sequence: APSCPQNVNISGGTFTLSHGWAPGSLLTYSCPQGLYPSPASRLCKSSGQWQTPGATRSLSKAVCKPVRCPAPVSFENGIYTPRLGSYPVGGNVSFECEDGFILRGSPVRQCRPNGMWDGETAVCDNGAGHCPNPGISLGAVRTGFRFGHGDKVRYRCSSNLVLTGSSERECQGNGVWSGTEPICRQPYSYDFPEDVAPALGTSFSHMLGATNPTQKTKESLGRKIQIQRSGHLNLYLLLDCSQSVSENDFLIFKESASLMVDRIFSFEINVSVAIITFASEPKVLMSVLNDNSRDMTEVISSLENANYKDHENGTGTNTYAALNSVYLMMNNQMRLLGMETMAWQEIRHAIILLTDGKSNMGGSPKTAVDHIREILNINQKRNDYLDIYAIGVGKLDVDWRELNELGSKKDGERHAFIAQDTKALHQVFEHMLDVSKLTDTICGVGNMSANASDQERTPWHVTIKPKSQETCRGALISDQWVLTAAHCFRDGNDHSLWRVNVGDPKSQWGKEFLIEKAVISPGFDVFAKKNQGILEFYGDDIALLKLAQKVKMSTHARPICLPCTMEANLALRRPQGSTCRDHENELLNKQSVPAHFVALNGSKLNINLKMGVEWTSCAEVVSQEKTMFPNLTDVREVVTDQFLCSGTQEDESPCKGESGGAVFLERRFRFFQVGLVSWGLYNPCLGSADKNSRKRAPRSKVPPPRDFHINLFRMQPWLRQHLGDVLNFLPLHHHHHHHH

human C2 Q447A = molecular target: T2, human C2 Q447A (human, UniProt P06681 21-752)
T2 sequence: T1 sequence with A419L, Q427A

human C2 S456A = molecular target: T3, human C2 S456A (human, UniProt P06681 21-752)
T3 sequence: T1 sequence with A419L, S436A

human C2 D419A = molecular target: T4, human C2 D419A (human, UniProt P06681 21-752)
T4 sequence: T1 sequence with D399A, A419L

B1: RF16-226 (antibody, human IgG4 S228P, lambda)
heavy: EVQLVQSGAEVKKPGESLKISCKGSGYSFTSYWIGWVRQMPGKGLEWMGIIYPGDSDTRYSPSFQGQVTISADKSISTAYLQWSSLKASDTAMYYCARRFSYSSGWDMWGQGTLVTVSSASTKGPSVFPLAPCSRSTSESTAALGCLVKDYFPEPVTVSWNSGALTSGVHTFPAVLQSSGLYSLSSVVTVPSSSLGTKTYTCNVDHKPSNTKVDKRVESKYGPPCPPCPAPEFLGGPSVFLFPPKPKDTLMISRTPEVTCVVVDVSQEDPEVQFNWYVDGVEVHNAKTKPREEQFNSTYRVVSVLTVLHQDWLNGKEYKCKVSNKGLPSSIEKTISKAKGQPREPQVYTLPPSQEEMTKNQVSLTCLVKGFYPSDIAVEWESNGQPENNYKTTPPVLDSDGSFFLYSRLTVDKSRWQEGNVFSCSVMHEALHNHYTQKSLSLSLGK
light: SYELTQPPSVSVSPGQTARITCSGDALTSKYVAWYQQKSGLAPLLVIYEDTRRPSGIPAKFSGSSSGSVATLTISGAHGDDEADYYCYSTDASGHQRVFGGGTKLTVLSQPKAAPSVTLFPPSSEELQANKATLVCLISDFYPGAVTVAWKADGSPVKAGVETTKPSKQSNNKYAASSYLSLTPEQWKSHRSYSCQVTHEGSTVEKTVAPTECS
notes: pH-dependent anti-C2 antibody from a phage display library; also called WT
Question: B1 was tested. Which Fold diff (human C2 L439A) did it give?
Answer: 12 fold

Question: And the Fold diff (human C2 Q447A)?
Answer: 1 fold

Question: What about the Fold diff (human C2 S456A) of the same binder?
Answer: 7 fold

Question: What about the Fold diff (human C2 D419A) of the same binder?
Answer: 2 fold
